Experimental data as given in US20190352426A1, “PLAZOMICIN ANTIBODIES AND METHODS OF USE” (Achaogen, Inc., priority 2016, published 2019).
Residue numbers refer to the chain shown, from its start.

B1: MC334: murine monoclonal anti-plazomicin antibody; heavy chain variable SEQ ID NO 58, light chain variable SEQ ID NO 62 (antibody, listed as Mus musculus, V domains shown)
VH: QVQLQQSGAELMKPGASVKISCKATGYKFSRYWIEWVKESPGHGLEWIGEIFPGSDSTDYNEKFKGKATLTADSSSNTAYMQLSSLTSEDSAVYYCARDGGGLDEFAYWGQGTPVIVSA
VL: DVVVTQIPLSLSVSFGDQVSISCRSSQSLTNSYGYTYLSWYLHKPGQSPQLLIYGISNRFSGVPDRFSGSGSGTDFTLKISTIKPEDLGMYYCLQGTHQPYTFGGGTKLEIR
B2: MC332: murine monoclonal anti-plazomicin antibody; heavy chain variable SEQ ID NO 50, light chain variable SEQ ID NO 54 (antibody, listed as Mus musculus, V domains shown)
VH: B1 VH
VL: B1 VL with I7N
B3: MC335: murine monoclonal anti-plazomicin antibody; heavy chain variable SEQ ID NO 66, light chain variable SEQ ID NO 70 (antibody, listed as Mus musculus, V domains shown)
VH: AGQLKESGPGLVKPSQSLSLTCTVTGSSITSDYAWNWIRQFPGNKLEWMGYISQSGSTSYNPSLKSRISITRDTSKNQFFLQLNSVTTEDTATYYCTGNSYTMDYWGQGTSVTVSS
VL: DIVMTQSPKFLLVSAGDRVTITCKASQSVSNDVAWYQQKPGQSPKLLISYASNRYTGVPDRFTGSGYGTDFTFTITTVQAEDLAVYFCQQDYSSPWTFGGGTKLEIK
B4: MC337: murine monoclonal anti-plazomicin antibody; heavy chain variable SEQ ID NO 82, light chain variable SEQ ID NO 86 (antibody, listed as Mus musculus, V domains shown)
VH: QVQLQQPGPELVKPGASVKMSCKASGYTFTSYVIHWVKQKPGQGLEWIGYINPFNDGTKYNEKFKGKATLTSDKSSSTAYMELSSLTSEDSAVYYCEGVGSSGSDYWGQGTTLTVSS
VL: B3 VL with S7T, S30R, T76S, V85I, W96Y
B5: MC329: murine monoclonal anti-plazomicin antibody from hybridoma MC329; heavy chain variable SEQ ID NO 22, light chain SEQ ID NO 26, 30 (antibody, listed as Mus musculus, V domains shown)
VH: SDVQLQESGPGLVKPSQSLSLTCTVTGYSITTNYAWNWIRQFPGHKLEWMGYITSSGRTSYNPPLKSRISITRDTSRSQFFLRLNSVTTEDTATYFCTHTTAYLDYWGQGTTLTVSS
VL 1: B3 VL with D1S, S7T, T72A, T76N, V85F, W96Y
VL 2: DIKMTQSPSSMYASLGERVTITCKASQDIKSYLSWYQQIPWKSPKTLIYYATSLADGVPSRFSGSGSGQDYSLTISSLESDDTATYYCLQHGESPLTFGAGTKLELK
B6: MC336: murine monoclonal anti-plazomicin antibody; heavy chain variable SEQ ID NO 74, light chain variable SEQ ID NO 78 (antibody, listed as Mus musculus, V domains shown)
VH: B3 VH with A1Q, G2M, K5Q, S27D, Q54Y, T71S, T88I
VL: B3 VL with D1S, S7T, K45N, T76S, S93I
B7: MC339: murine monoclonal anti-plazomicin antibody; heavy chain variable SEQ ID NO 90, light chain variable SEQ ID NO 94 (antibody, listed as Mus musculus, V domains shown)
VH: QVQLVQSGPELVKPGASVKVSCKASGFSFTDYNMYWVKQSHGKSLEWIGYIDPYNGGTSYNQKFKGKATLTFDKSSSTAFMHLNSLTSEDSAVYYCASAGNYDDYWGQGTTLTVSS
VL: B3 VL with S7T, K45T, S49Y, T76S, S93T, W96Y
B8: MC331: murine monoclonal anti-plazomicin antibody; heavy chain variable SEQ ID NO 42, light chain variable SEQ ID NO 46 (antibody, listed as Mus musculus, V domains shown)
VH: QVQLQQSGAELAKPGASVKMSCKASGNTFTSYWMHWIKQRPGQGLEWIGYIDPSTGYTEYNQKFKDRATLTADKSSNTAYMQLNSLTSEDSAVYYCTKSGKWDDYWGQGTTLTVSS
VL: B3 VL with D1S, S7T, S30T, S49C, T76S, Y92H, S93T, W96F
B9: MC340: murine monoclonal anti-plazomicin antibody; heavy chain variable SEQ ID NO 98, light chain variable SEQ ID NO 102 (antibody, listed as Mus musculus, V domains shown)
VH: QVTLKESGGGLVQPGGSMKISCVVSGLTFRNYWMSWVRQSPEKGLEWVAEIRLKSDNYATHYAESVKGKFTISRDDSKSRLYLQMNSLRAEDTGIYYCTVYGKDFDYWGQGTTLTVSS
VL: B3 VL with I2V, S7T, T76S
B10: MC330: murine monoclonal anti-plazomicin antibody; heavy chain variable SEQ ID NO 34, light chain variable SEQ ID NO 38 (antibody, listed as Mus musculus, V domains shown)
VH: SDVQLQESGPGLVTPSQSLSLTCTVTGYSITSAYAWNWIRQFPGNKLEWLGYINSSGSTSYHPSLKGRISITRDTSKNQFFLQLNSVTTEDTATYYCTHTTSYFDYWGQGTTLTVSS
VL: B3 VL with D1S, S7T, L12I, T74A, W96Y, L104V

experiment: competitive ELISA on BSA-bromo-plazomicin coated plates, free plazomicin; assay type: binding; conditions: free plazomicin 0.013-270 μg/ml incubated with antibody at 0.05 nM, then added to BSA-bromo-plazomicin-coated ELISA plates
Procedure: (§1) The purified antibodies were then analyzed for binding to BSA-plazomicin by ELISA (the tested concentrations of antibodies ranged from 0.0001 nM to 100 nM). (FIG. 1A) and competitive ELISA (FIG. 1B) on BSA-bromo-plazomicin coated ELISA plates. For competitive ELISAs, free aminoglycosides (plazomicin, gentamicin, amikacin, and sisomicin) at concentrations; 270 μg/ml, 90 μg/ml 30 μg/ml, 10 μg/ml, 3.3 μg/ml, 1.1 μg/ml, 0.4 μg/ml, 0.12 μg/ml, 0.04 μg/ml and 0.013 μg/ml were incubated with one of 10 purified monoclonal antibodies derived from the cell cultures described above; MC329, MC330, MC331, MC332, MC334, […], […], MC337, MC339, MC340 at 0.05 nM concentration (FIG. 1B). The antibody/aminoglycoside solutions were then added to BSA-bromo-plazomicin-coated ELISA plates. Plates were washed to remove unbound antibody, and IC50 values (μg/mL) were determined for each aminoglycoside and are shown below in Table 5.

| Molecule | Antibiotic IC50 Values for Aminoglycosides: Plazomicin [µg/mL] |
| --- | --- |
| B1 | 0.72 |
| B2 | 0.94 |
| B3 | 0.59 |
| B4 | 0.06 |
| B5 | 0.43 |
| B6 | 0.25 |
| B7 | 0.12 |
| B8 | 0.43 |
| B9 | 19.0 |
| B10 | 0.02 |

experiment: competitive ELISA on BSA-bromo-plazomicin coated plates, free sisomicin; assay type: binding; conditions: free sisomicin 0.013-270 μg/ml incubated with antibody at 0.05 nM, then added to BSA-bromo-plazomicin-coated ELISA plates
Procedure: as §1

| Molecule | Antibiotic IC50 Values for Aminoglycosides: Sisomicin [µg/mL] |
| --- | --- |
| B3 | 69.0 |
| B4 | 16.1 |
| B5 | 83.0 |
| B6 | 37.6 |
| B7 | 24.4 |
| B8 | 83.0 |
| B9 | 153 |
| B10 | 9.9 |

experiment: competitive ELISA on BSA-bromo-plazomicin coated plates, free gentamicin; assay type: binding; conditions: free gentamicin 0.013-270 μg/ml incubated with antibody at 0.05 nM, then added to BSA-bromo-plazomicin-coated ELISA plates
Procedure: as §1

| Molecule | Antibiotic IC50 Values for Aminoglycosides: Gentamicin [µg/mL] |
| --- | --- |
| B4 | 107.6 |
| B5 | 107.0 |
| B6 | ~106.1 |
| B7 | ~101.7 |
| B8 | 214.4 |
| B10 | 92.0 |
